Data: the DeepSol protein solubility set

assay: soluble on expression in E. coli; label from the status in PepcDB or PDB records

Row | Sequence | soluble on expression in E. coli
1 | MAHHHHHHMIAATQVPGLNEISRQAASGSPFPQVLPPRYPANKVSTAGLQSSNHGAAQLVHDVNNVAAEIHHPLITAADYSDRRQLLSHITVLSGQLQRAQLLLRNTPSCVVSDADIARFDPLIAQAEVERLDSALAQLSLLHEMERARSGSLEAEQQQLREERNQLVARVDTLESRSVALETENVQLRSALEVAQQELQVLRVGESALGNKLHAIEQLQRDGGRFDGVNVVIAPPRAVCSTAAKELQLQENIQRLSLLLDMMMDPMYIAFDAGVVWITETEHHRAGGQVCGAALSNAPHDSEELTTTVGGNSPLGNASDATLPQDVVANPPHVVASEVDISLLQQQQQELCRQLDAVRESCRVAERNQERLQDLLLEEQRRTEAMAQEHCKQLQCVHDRVVHERRQVVESLVAEVEEKMRNAFRDGRLYQKQLDERLIHRRSSSTFQSRSGHSSARSTPFASRHKAFGGNGTCKGDGDANSSRSARSPILGG | not soluble
2 | MSLETLRIANRMLGYAAYEWRLSSLDGQKVMSSSGICLEVDTCLADERRYVSGENRPEMAIICSGIDVDQHVNKSVNAWLREAYNRGIAIGSLCTAAHILAQAGLLNGKRCAIHWENLPGFSEAFPQVEVYADLFEVDSNIYTCAGGTASLDMMLSLIGQDFGENLVNRVCEQQLTDRVREGHHHHHH | not soluble
3 | MTEDLFGDLQDDTILAHLDNPAEDTSRFPALLAELNDLLRGELSRLGVDPAHSLEIVVAICKHLGGGQVYIPRGQALDSLIRDLRIWNDFNGRNVSELTTRYGVTFNTVYKAIRRMRRLKYRQYQPSLL | soluble
4 | MVVFNGLLKIKICEAVSLKPTAWSLRDAVGPRPQTFLLDPYIALNVDDSRIGQTATKQKTNSPAWHDEFVTDVCNGRKIELAVFHDAPIGYDDFVANCTIQFEELLQNGSRHFEDWIDLEPEGKVYVIIDLSGSSG | soluble
5 | MISILRRGLLVLLAALPLLANAASTPSAHDLVQDTTTRLLADLAANKEKYKQSPNDFYNALNSIVGPVVDADGISRSIMTVKYSRKATPEQMVRFQENFKRSLMQFYGNALLEYNNQGITVSPAKDESGTRTSVDMQVKGNNGAIYPVSYTLEKINDEWKVRNVIINGINIGKLFRDQFADAMQRNGNNLDKTIDGWAGEVAKAKEVTEDAAQKAAQLEHHHHHH | soluble
6 | MIQTPYYLIDADRLRQNMAVVDRLRQASGAKALLALKCFATWPAFEHMRDHMDGTTSSSLYELRLGREKFGKETHAYSVAWPDHEIDEAVGYADKIIFNSVGQLARFRNRTGGIARGLRLNPGLSTSGFDLADPARPFSRLGEWSAEKIEAVLPDISGVMIHYNCENADVDLFERQLSEIEGRFGAILDRLDWVSLGGGIHFTGEGYPVDRLAARLKAFAAAHGVQVYLEPGEAAITRSATLEVTVLDLLDNGKQLAIVDSSVEAHMLDLLIYRQSAKVEPDAGDHSYMVCGKSCLAGDIFGEFRFAQPLQVGDRLSIADAAGYTMVKKNWFNGVKMPSIVIREPDGSLRVAREFGYGDYASSLG | not soluble
7 | MSLDNGIELPGVSFWGGNILQDTDGKYHLFVCGWPEDSPKGHMFWSNSTVFHAVSDRLEGPFKIQNSVGKGHNPEAFQLKDGRVVVYVIDGYYIADGVDSKVWTYGKFSFDSRDRKIIEGLSNLTFARRQDDSYLMVCRGGGVWISKDGLSPYMQLTDKRVYPDVEGRFEDPVVWRDELQYHLIVNDWLGRIAFYQRSKDGVHWVTEQGEAYVPGVSFHKDGAVEHWFKYERPKVFQDEKGRAVQMNFAVIDTIKWNDLPNEGHHHHHH | not soluble
8 | MGSDKIHHHHHHVAELVFFSGTMDCGKSTLALQMDHNHRARGRGGVRFSRNDRAGGARISSRLGLETDCVEVLDTTDFWDEVIERRTRGLRVDYLICDEAQFYSPLQVEQLARIVDEIDVDVFAFGISADFRTRLFPGSQRLIELADRVQVLQVEALCWCGRRATHNARTVDGVMVTEGAQVVVGDVDMAGDPASASADHAPVVGYETLCRRHFMRRVTAHGANVMAQQDQLLPFEVDACLWHGSGETRHS | not soluble
9 | MSLVTKGKSAQYIKDESAFEDFLIGSGLEEASLSLSSGEVRTGQDLRAVIDDALAIRTLINGLHTRYSRTVVEQAAIAGALNPDLFNDLGRANAMAETIARRLDLVAEDTERGWQGRTSTSNEGPGGYIMERTVRGVKESATLDMALLGSADARALDRYAARLGEEGHHHHHH | not soluble
